In the supplement of paper PMC12042874:
± gives the uncertainty stated by the source.

experiment: amyloid nucleation score (Sup35N fusion, yeast selection) (log enrichment); library NNK3; higher = more nucleation; inactive = no reads after selection
In short: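 Peptides of 20 random codons fused to Sup35N were expressed in psi-negative yeast, induced 24 hours with 100 μM copper sulfate, then grown 7 days at 30°C on medium lacking adenine and uracil. Input and output plasmid inserts were Illumina-sequenced. Nucleation score is the DiMSum log enrichment of output over input reads, centred on the mode score of non-aggregating sequences, excluding sequences with under 100 input reads. Random libraries had three technical output replicates.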

Row | Substance | amyloid nucleation score
1 | LFMEDVLRFGLLYLI | inactive
2 | LFMKSVEMWNRGYLSITCMC | inactive
3 | LFMLVAE | inactive
4 | LFNLGICYTISNYSLSLEQS | 2.1 ± 0.086
5 | LFRDKDVDVVSSN | inactive
6 | LFSLCWRCTLLKLYCPNWCY | inactive
7 | LFYMLPIIVFAPVLMAWLSF | inactive
8 | LFYSRGHLSGLGLGVMAPFI | inactive
9 | LFYSTARCEKSRCVMGRMRG | inactive
10 | LGAWVGVFMLKQ | inactive
11 | LGDNLEGNIGLLL | inactive
12 | LGGNMTCLSQDYLRTSKELL | inactive
13 | LGKSKFMAGQFLFCYSSVVL | 1.58 ± 0.12
14 | LGLILIVLLVRPVFDSKRLD | inactive
15 | LGPVIS | -0.46 ± 1.7
16 | LGVALVTICVLRECGKILYI | -0.107 ± 0.68
17 | LGYLRFVLIYQTCCQLTKSP | -0.617 ± 0.6
18 | LGYPCFSKWFVYSRSIGLEG | inactive
19 | LHASMLLLRNNRSRS | inactive
20 | LHGHLGWWNVLDCPICLNFI | inactive
21 | LHHAVVREWRFQKNVCRQLR | inactive
22 | LHICTLYREVVVAAQCS | inactive
23 | LHLGMRLV | inactive
24 | LHLMWMPVTCGEVALCDGQS | inactive
25 | LHLYNVDVNLIGPQVY | inactive
26 | LHMCNS | inactive
27 | LHMEG | -0.611 ± 1.1

Row | Substance | amyloid nucleation score
28 | LHNCPVDGWAAVSRSVVGRE | inactive
29 | LHSFLRCDCSIARF | inactive
30 | LHSLKHNCVFSAIVGHCFQC | 2.11 ± 0.098
31 | LHTICHMLLIH | inactive
32 | LHTSTTPKTMKRRSQLSNQK | inactive
33 | LHVPGLIYF | inactive
34 | LIAMICSLGTYFLIVAFELI | inactive
35 | LIDNRRFRHLLTRNVFVSHH | inactive
36 | LILAQVLWFGFETGGKLETM | inactive
37 | LIPASLKADRQCAHSRYSR | inactive
38 | LIRCCFPHMSGVLFMKFTLT | inactive
39 | LIRVGKDRVVSMEEVRCLLR | inactive
40 | LISINLVQTSPRPRHYYLCS | inactive
41 | LISNAQA | inactive
42 | LITGLDLPGIWHTVYSYYSV | inactive
43 | LIWYRNDEWYSFLWMVYCSS | inactive
44 | LKAYKFMSSNQHTRTAFLGD | inactive
45 | LKLRSRITNINILDVRYWIC | inactive
46 | LKLTHD | inactive
47 | LKNHNLVTKHYYARLMIGLW | inactive
48 | LKRVDEVVIDPLYREGYTER | inactive
49 | LKSGVFFG | inactive
50 | LKTCFIP | inactive
51 | LKTSNRR | inactive
52 | LKVNIWLPGRPFTILWSPRR | inactive
53 | LKYIDTSFMLGFSIVSLRFQ | inactive
54 | LKYLCYHRQCSLMPRCWMDR | inactive

Row | Substance | amyloid nucleation score
55 | LKYSHEHGFFSYYACWCQQL | inactive
56 | LLCFVDVSYVHNA | 0.834 ± 0.23
57 | LLCSKARSCRVDRMKRGGWV | inactive
58 | LLDSVNGHCYMCLTIMGVRN | inactive
59 | LLFCVLFATPINCISLIMSE | inactive
60 | LLFFLAGVSSHIMYLVYARC | inactive
61 | LLFVVQWWFNRFFE | inactive
62 | LLIIVYLVWCALIRRGTQPR | inactive
63 | LLISGCRSFMMAFSGCL | inactive
64 | LLKEFIL | inactive
65 | LLKHMSLFVLRSSNR | inactive
66 | LLLRLLTMMVFNCILVDYGL | inactive
67 | LLLVKSTI | -0.176 ± 0.56
68 | LLLVSLELTRLNSHEWVYVI | inactive
69 | LLLVWRLKVSGGLDSNRTGV | 1.05 ± 0.13
70 | LLMGSSSSV | inactive
71 | LLRGLAIGKKDYIYSLLLLH | -0.619 ± 1.4
72 | LLRHDLYRVCTNRV | inactive
73 | LLRVCVSFRCIVNSCMRR | inactive
74 | LLSLFFIHPTATRRTKVSRC | inactive
75 | LLSPQFRRIGSFRWKFAPRF | inactive
76 | LLYFSVLRSEL | inactive
77 | LLYYSSINYFLLLGFCSEEL | 1.51 ± 0.065
78 | LMAVHMGMCMHEILHAVSLR | inactive
79 | LMETSSRYTFYMKGLHRTMS | 0.428 ± 0.27
